Where no end group is shown, it is not given here. [ ]: non-standard residue; d: D form. The star is where a group is joined. Hexanoyl = CCCCCC(=O)*; Aib = CC(C)(N)C(=O)O
B1: P240 (peptide)
peptide: Hexanoyl-HSDAVFTDNYTRL[Aib]KQLAA[Aib]KYLQSIKNKRYGGPSSGAPPPS
modifications: ends and bridges not checked
B2: P242 (peptide)
peptide: Hexanoyl-HSDAVFTDNYTRL[Aib]KQVAA[Aib]KYLQSIKNKRYGGPSSGAPPPS
modifications: ends and bridges not checked
B3: P244 (peptide)
peptide: Hexanoyl-HSDAVFTDNYTRL[Aib]KQVAAK[Aib]YLQSIKNKRYGGPSSGAPPPS
modifications: ends and bridges not checked
B4: P167 (peptide)
peptide: Hexanoyl-HSDAVFTDNYTRL[Aib]KQVAAKKYLQSIKNKRYGGPSSGAPPPS
modifications: ends and bridges not checked
B5: P243 (peptide)
peptide: Hexanoyl-HSDAVFTDNYTRL[Aib]KQVAAQKYLQSIKNKRYGGPSSGAPPPS
modifications: ends and bridges not checked
B6: P168 (peptide)
peptide: Hexanoyl-HSDAVFTDNYTRLR[Aib]QVAAKKYLQSIKNKRYGGPSSGAPPPS
modifications: ends and bridges not checked
B7: P170 (peptide)
peptide: Hexanoyl-HSDAVFTDNYTRLRKQVAAK[Aib]YLQSIKNKRYGGPSSGAPPPS
modifications: ends and bridges not checked
B8: P169 (peptide)
peptide: Hexanoyl-HSDAVFTDNYTRLRKQVAA[Aib]KYLQSIKNKRYGGPSSGAPPPS
modifications: ends and bridges not checked
B9: P335 (peptide)
peptide: HSDAVFTDNYTXLRXQVAAXKYLQSIXXGGPSSGAPPPS
modifications: N-terminal hexanoyl (C6); Orn at 12; Aib at 15, 20; hR at 27, 28
B10: P177 (peptide)
peptide: Hexanoyl-HSDAVFTDNYTRLRQQVAAKKYLQSIKNKRYGGPSSGAPPPS
B11: P222 (peptide)
peptide: Hexanoyl-HGEGTFTDNYTRLRKQVAAKKYLQSIKNKRYGGPSSGAPPPS
B12: P314 (peptide)
peptide: Hexanoyl-HSEAVFTENYTRLR[Aib]QVAA[Aib]KYLQSIKNKRYGGPSSGAPPPS
modifications: ends and bridges not checked
B13: P318 (peptide)
peptide: Hexanoyl-HSDAVFTDNYTRLK[Aib]QVAA[Aib]KYLQSIKNKRYGGPSSGAPPPS
modifications: ends and bridges not checked
B14: P315 (peptide)
peptide: Hexanoyl-HSDAVFTDQYTRLR[Aib]QVAA[Aib]KYLQSIKQKRYGGPSSGAPPPS
modifications: ends and bridges not checked

Experiments:
Experiment in all cases: cell-based or functional assay
[1] = target: T1, human VPAC2 receptor (human, UniProt P41587 24-438)
T1 sequence (looked up): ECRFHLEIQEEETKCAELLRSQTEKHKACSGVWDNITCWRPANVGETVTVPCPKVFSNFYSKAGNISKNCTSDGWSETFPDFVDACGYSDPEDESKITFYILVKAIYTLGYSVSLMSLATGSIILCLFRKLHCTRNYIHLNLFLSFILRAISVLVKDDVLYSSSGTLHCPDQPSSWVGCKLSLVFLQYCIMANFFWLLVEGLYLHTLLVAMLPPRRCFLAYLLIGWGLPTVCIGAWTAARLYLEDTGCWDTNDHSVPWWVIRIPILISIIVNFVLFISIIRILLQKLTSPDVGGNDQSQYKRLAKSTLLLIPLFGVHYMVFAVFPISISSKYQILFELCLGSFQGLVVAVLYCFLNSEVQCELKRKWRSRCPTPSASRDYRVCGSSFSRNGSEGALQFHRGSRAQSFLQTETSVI

[2] = target: T2, rat VPAC1 receptor (rat, UniProt P30083 31-459)
T2 sequence (looked up): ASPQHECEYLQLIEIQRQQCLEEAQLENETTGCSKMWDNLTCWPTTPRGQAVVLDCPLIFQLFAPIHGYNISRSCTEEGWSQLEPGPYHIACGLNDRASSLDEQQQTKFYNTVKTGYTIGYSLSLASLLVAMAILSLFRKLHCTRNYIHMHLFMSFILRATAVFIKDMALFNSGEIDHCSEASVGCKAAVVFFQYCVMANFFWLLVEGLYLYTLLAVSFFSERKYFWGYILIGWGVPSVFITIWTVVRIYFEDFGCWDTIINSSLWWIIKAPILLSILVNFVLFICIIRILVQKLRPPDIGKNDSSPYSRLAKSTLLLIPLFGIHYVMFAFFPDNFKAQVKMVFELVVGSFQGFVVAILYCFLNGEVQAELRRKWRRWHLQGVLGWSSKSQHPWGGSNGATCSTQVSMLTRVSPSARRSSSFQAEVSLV

[3] = target: T3, rat VPAC2 receptor (rat, UniProt P35000 23-437)
T3 sequence (looked up): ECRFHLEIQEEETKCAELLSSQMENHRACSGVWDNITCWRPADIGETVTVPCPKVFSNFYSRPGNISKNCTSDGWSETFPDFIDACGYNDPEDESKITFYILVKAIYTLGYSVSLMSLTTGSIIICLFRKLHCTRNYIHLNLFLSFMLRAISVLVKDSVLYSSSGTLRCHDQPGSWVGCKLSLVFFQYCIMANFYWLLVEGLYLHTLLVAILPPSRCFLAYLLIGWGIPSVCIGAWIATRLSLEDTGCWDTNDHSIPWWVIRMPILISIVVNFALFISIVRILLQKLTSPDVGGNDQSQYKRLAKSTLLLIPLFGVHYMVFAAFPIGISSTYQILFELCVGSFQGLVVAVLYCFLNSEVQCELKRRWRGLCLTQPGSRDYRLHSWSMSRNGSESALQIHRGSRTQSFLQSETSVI

Binder	EC50 cAMP, Alpha Screen [1] [nM]	EC50 cAMP, DiscoveRx [2] [nM]	EC50 cAMP, DiscoveRx [3] [nM]
B1	0.51	24.5	0.36
B2	0.8	72.2	0.46
B3	2.03	127	1.85
B4	0.17	6.88	0.24
B5	0.28	157	0.79
B6	0.27	–	0.05
B7	0.18	–	0.15
B8	0.14	1.32	0.07
B9	0.22	–	0.05
B10	0.21	–	0.1
B11	0.51	43.9	34.9
B12	0.22	29.2	0.12
B13	0.32	9.96	0.09
B14	0.19	1.18	0.04

— US20080026996A1, “Selective Vpac2 Receptor Reptide Agonists” (ELI LILLY AND COMPANY, priority 2004, published 2008)
